Experimental data: publication PMC3750193, “Disassembly of All SNARE Complexes by N-Ethylmaleimide-sensitive Factor (NSF) Is Initiated by a Conserved 1:1 Interaction between α-Soluble NSF Attachment Protein (SNAP) and SNARE Complex*^([image sbox.jpg])” (The Journal of Biological Chemistry, 2013)

Columns and labels:
Experiment in all cases: other fluorescence titration; change in Oregon Green 488 fluorescence intensity of the labeled SNARE complex as a function of α-SNAP concentration; fit y = Fmax·x/(KD + x); three independent experiments
[1] = molecular target: all four ternary SNARE complexes
[2] = molecular target: T1, VAMP7-syntaxin4-SNAP23 ternary SNARE complex, labeled with Oregon Green 488 (rat, UniProt Q9JHW5 1-190; Q08850 1-274; O70377 1-210, C21S | C56V | C141S | E257C | I261C, Oregon Green 488 (maleimide) on cysteines; the labeled endogenous and mutant cysteines are shown in Figure 1A); conditions: both partners purified
T1 construct: VAMP7, rat, residues 1-190; syntaxin4A, rat, residues 1-274; tag-free; SNAP23, rat; Removal of the His6 tag is told only for α-SNAP; also called VAMP7(1–190)-C21S/C56V-syntaxin4A(1–274)-C141S/E257C/I261C-SNAP23; source: E. coli BL21(DE3), coexpressed, purified (Ni-NTA, Superdex 200); copies: + +
T1 sequence (looked up) 1: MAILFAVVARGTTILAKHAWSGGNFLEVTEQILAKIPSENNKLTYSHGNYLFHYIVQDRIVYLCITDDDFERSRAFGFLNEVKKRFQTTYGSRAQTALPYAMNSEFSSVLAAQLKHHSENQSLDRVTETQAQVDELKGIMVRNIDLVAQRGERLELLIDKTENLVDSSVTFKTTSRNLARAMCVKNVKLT
T1 sequence (looked up) 2: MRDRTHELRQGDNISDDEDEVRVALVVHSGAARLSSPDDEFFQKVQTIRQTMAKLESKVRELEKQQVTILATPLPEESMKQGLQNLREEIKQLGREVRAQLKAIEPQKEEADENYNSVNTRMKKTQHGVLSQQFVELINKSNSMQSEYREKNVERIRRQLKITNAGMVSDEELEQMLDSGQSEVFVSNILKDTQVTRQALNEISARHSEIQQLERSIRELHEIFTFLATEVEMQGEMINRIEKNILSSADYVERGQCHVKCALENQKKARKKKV
T1 sequence (looked up) 3: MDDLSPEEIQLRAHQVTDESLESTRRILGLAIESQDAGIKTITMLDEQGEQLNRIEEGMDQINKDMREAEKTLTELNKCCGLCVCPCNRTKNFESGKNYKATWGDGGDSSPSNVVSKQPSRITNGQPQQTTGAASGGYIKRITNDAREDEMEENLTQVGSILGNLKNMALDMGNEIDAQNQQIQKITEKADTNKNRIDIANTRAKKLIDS

[3] = molecular target: T2, VAMP8-syntaxin4-SNAP23 ternary SNARE complex, labeled with Oregon Green 488 (rat, UniProt Q9WUF4 1-76; Q08850 1-274; O70377 1-210, I76C | C141S | E257C | I261C, Oregon Green 488 (maleimide) on cysteines; the labeled endogenous and mutant cysteines are shown in Figure 1A | Oregon Green 488 (maleimide) on cysteines; the labeled endogenous and mutant cysteines …); conditions: both partners purified
T2 construct: VAMP8 (endobrevin), rat, residues 1-76; syntaxin4A, rat, residues 1-274; tag-free; SNAP23, rat; Removal of the His6 tag is told only for α-SNAP; also called VAMP8(1–76)-I76C-syntaxin4A(1–274)-C141S/E257C/I261C-SNAP23; source: E. coli BL21(DE3), coexpressed, purified (Ni-NTA, Superdex 200); copies: + +
T2 sequence (looked up) 1: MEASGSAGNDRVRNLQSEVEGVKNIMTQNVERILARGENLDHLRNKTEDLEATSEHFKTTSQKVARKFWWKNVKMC
T2 sequence (looked up) 2: T1 sequence (looked up) 2
T2 sequence (looked up) 3: T1 sequence (looked up) 3

B1: α-soluble NSF attachment protein (α-SNAP) (natural protein, rat, UniProt P54921 1-295, looked up)
chain: MDTSGKQAEAMALLAEAERKVKNSQSFFSGLFGGSSKIEEACEIYARAANMFKMAKNWSAAGNAFCQAAQLHLQLQSKHDAATCFVDAGNAFKKADPQEAINCLMRAIEIYTDMGRFTIAAKHHISIAEIYETELVDVEKAIAHYEQSADYYKGEESNSSANKCLLKVAGYAAQLEQYQKAIDIYEQVGTSAMDSPLLKYSAKDYFFKAALCHFCIDMLNAKLAVQKYEELFPAFSDSRECKLMKKLLEAHEEQNVDSYTESVKEYDSISRLDQWLTTMLLRIKKTIQGDEEDLR
notes: α-SNAP, rat; His6 tag removed with tobacco etch virus protease; source: E. coli BL21(DE3), purified (Ni-NTA, Superdex 200)
- Kd [1]: 200 to 600 nM
- binding result [2]: binds
- binding result [3]: binds
